Measurements reported in article PMC7405475.

Target: His6-maltose binding protein-SARS-CoV-2 N3 (spacer B/N3 region, residues 365-419) (SARS-CoV-2) (UniProt P0DTC9)
Assay: SEC-MALS

## His6-maltose binding protein-SARS-CoV-2 N3 (spacer B/N3 region, residues 365-419) (from UniProt P0DTC9 365-419) (domain or fragment)
  stoichiometry N: 2
